Reference: article PMC6726503
Read-outs that look alike come from different tables or passages of the source.

Assays:
TβRII ECD (Homo sapiens) = TβRII ECD (Homo sapiens) (UniProt P37173); details: cited from earlier work
human TGF-β2 (human) [1] = experiment: SPR
[2] = target: TGF-β2DM:TβRII binary complex (human) (UniProt P37173); experiment: SEC-MALS
human TGF-β2 (human) [3] = experiment: SPR; remark: listed apart in the source

TβRII ECD (Homo sapiens), sequence (P37173 23-166): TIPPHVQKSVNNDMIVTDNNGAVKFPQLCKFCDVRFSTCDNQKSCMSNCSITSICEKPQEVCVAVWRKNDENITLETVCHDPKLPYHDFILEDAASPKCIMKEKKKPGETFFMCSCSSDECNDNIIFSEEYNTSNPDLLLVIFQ

Question: For TGF-β2 (from UniProt P61812), which Kd (TβRII ECD (Homo sapiens)) is on record?
Answer: 20000 nM

Question: With “full-length zebrafish betaglycan ectodomain (domain or fragment)” as the substance, how does the Kd (human TGF-β2 (human) [1]) read?
Answer: 4.95 nM

Question: What about the koff (human TGF-β2 (human) [1]) of the same substance?
Answer: 0.00173 s⁻¹

Question: And the kon (human TGF-β2 (human) [1])?
Answer: 350000 M⁻¹ s⁻¹

Question: What about the stoichiometry N (BG (O-ZP) per TGF-β2DM dimer) [2] of the same substance?
Answer: 1

Question: Which KD1 (heterogeneous-ligand fit, ligand class 1) (human TGF-β2 (human) [1]) does the source give for “zebrafish betaglycan ZP-C domain (domain or fragment)” here?
Answer: 1100 nM

Question: And the KD2 (heterogeneous-ligand fit, ligand class 2) (human TGF-β2 (human) [1])?
Answer: 480 nM

Question: And the ka1 (heterogeneous-ligand fit, ligand class 1) (human TGF-β2 (human) [1])?
Answer: 480000 M⁻¹ s⁻¹

Question: What about the kd1 (heterogeneous-ligand fit, ligand class 1) (human TGF-β2 (human) [1]) of the same substance?
Answer: 0.51 s⁻¹

Question: What about the kd2 (heterogeneous-ligand fit, ligand class 2) (human TGF-β2 (human) [1]) of the same substance?
Answer: 9300 s⁻¹

Question: Which Kd (human TGF-β2 (human) [3]) does the source give for “zebrafish betaglycan orphan domain (domain or fragment)” here?
Answer: 15 nM

Question: And the koff (human TGF-β2 (human) [3])?
Answer: 0.00772 s⁻¹

Question: And the kon (human TGF-β2 (human) [3])?
Answer: 528000 M⁻¹ s⁻¹

Question: And the Kd (human TGF-β2 (human) [1])?
Answer: 27 nM

Question: What about the koff (human TGF-β2 (human) [1]) of the same substance?
Answer: 0.0288 s⁻¹

Question: And the kon (human TGF-β2 (human) [1])?
Answer: 1.07e+06 M⁻¹ s⁻¹

Question: What about the stoichiometry N (BGO per TGF-β2DM dimer) [2] of the same substance?
Answer: 1
